What was measured:
PR-DUB complex = assay: Tandem affinity purification: association with PR-DUB complex; assay type: cell-based, human; settings: K562 soluble nuclear extracts, 3Flag-2Strep tag, western blot and mass spectrometry
Procedure: (§1) Isogenic K562 cell lines expressing 3xFlag2xStrep-tagged ASXL2 WT and ΔMBH (aa 650-670), were generated by integration at the AAVS1 safe harbor locus after DSB induction and recombination targeted by co-transfection with a ZFN expression plasmid, as previously described. 2 × 10^5 cells were transfected with 400 ng of ZFN expression vector and 4 μg of donor constructs. Selection and cloning were performed in RPMI medium supplemented with 0.5 μg/mL puromycin starting 2–3 days post transfection. Clones were obtained by limiting dilution and expanded before harvest for western blot analysis.
(§2) For purification of native complexes, after large-scale expansion of K562 clones, affinity purifications of tagged ASXL2 WT and ΔMBH (aa 650-670) were performed on nuclear extracts as previously described. Briefly, nuclear extracts were prepared following standard procedures and pre-cleared with CL6B Sepharose beads. […] Typically, 5–15 μl of the elutions (1–3% of total) was loaded on NuPAGE 4–12% Bis-Tris gels (Invitrogen) and analyzed by silver staining and western blots. […] Purified fractions were prepared and analyzed at the Proteomics Platform of the Quebec Genomic Center using an Orbitrap Fusion mass spectrometer (Thermo Fisher Scientific) as previously described. […]

[1] = tested on: D372K/D400K MLL3PHD2/3 mutant; assay: GST pull-down, D372K/D400K MLL3PHD2/3; assay type: binding, human; settings: D372K/D400K GST-MLL3PHD2/3; HEK293FT lysate, western blot
Procedure: (§3) Pull-down assays were performed by mixing resin-bound GST-MLL3PHD2/3 and GST-MLL4PHD2/3 (wild type and mutants) with lysates of HEK293FT expressing Myc-ASXL1, Myc-ASXL2 or Myc-ASXL2ΔMBH. Pellets of HEK293FT cells transfected with the appropriate pDEST expression construct (15 μg/dish using polyethylenimine (PEI)) were lysed with 10 times their volume of lysis buffer (50 mM Tris pH 7.3, 100 mM NaCl, 1 mM DTT, 1 mM EDTA, 1 mM PMSF, 0.1% Tween20, 1/100 anti-protease (Sigma)) and sonicated with a probe sonicator (Branson digital sonifier 450) calibrated at 40% amplitude for 3–4 rounds during 40–60 s. Lysates were then centrifuged in a Sorvall Lynx 6000 (rotor: F21-8x50Y) at 15,000 RPM during 20 min. Approximatively 9 μg of purified GST-fusion proteins bound to GSH resin (Sigma, G4510) were used for each condition. Final volume of GSH resin was adjusted to 30 μl per condition with empty GSH beads and incubated with 1.5 mL of HEK293FT lysate expressing Myc-ASXL1, Myc-ASXL2 or Myc-ASXL2ΔMBH for 3 h at 4 °C on a rotative system. A fraction of the reaction mixture (80 μL) was collected as the input. After the incubation, beads were washed 5 times and mixed with 100 μL of Laemmli buffer. Samples were loaded on 8% or 15% SDS-acrylamide gels and processed for western blotting.

H2AK119 = H2AK119 deubiquitination assay; assay type: biochemical, human; settings: purified complexes on human chromatin, 37 °C, 3 or 6 h, immunoblot
Procedure: The deubiquitination reactions were done by adding equivalent amounts of ASXL2 WT or ΔMBH (4 μl E1-F) native complexes purified from K562 cells to 0.5 μg of chromatin enriched extracts from K562 cells, incubated at 37 °C in 50 mM Tris-HCl pH 7.3, 50 mM NaCl, 1 mM MgCl2, 1 mM DTT, 1 mM PMSF, 10 μg/ml Leupeptin, 10 μg/ml Pepstatin A, 25 μg/ml Aprotinin. After 3 or 6 h incubation, 4X Laemmli buffer was added, the samples run on 15% SDS-PAGE and transferred on nitrocellulose membrane. Immunoblotting was performed with an anti-H2AK119ub (Cell Signaling, D27C4, rabbit polyclonal) diluted 1:2000 followed by HRP conjugated secondary goat anti-rabbit antibody (Sigma) used at a 1:10,000 dilution. The immunoblots were visualized using a Western Lightning plus-ECL reagent (Perkin-Elmer). Anti-H3 (Abcam, Ab1791, rabbit polyclonal) was used at a 1:50,000 dilution.
Cell pellets were harvested 2 days post-transfection and lysed with 10 times their own volume with EB300 lysis buffer (50 mM Tris pH 7.3, 300 mM NaCl, 0.5% Triton X100 (V/V), 5 mM EDTA, 50 mM NaF, 1 mM Na3VO4 (activated), 10 mM Beta-glycerol-phosphate, 1 mM DTT, 1 mM PMSF, 1/100 anti-protease (Sigma)). Lysates were incubated on ice for 30 min before centrifugation in a Sorvall Lynx 6000 (rotor: F21-8x50Y) at 15,000 RPM during 20 min. Supernatants were collected and diluted with EB0 (50 mM Tris pH 7.3, 0.5% Triton X100 (V/V), 5 mM EDTA, 50 mM NaF, 1 mM Na3VO4, 10 mM Beta-glycerol-phosphate, 1 mM DTT, 1 mM PMSF, 1/100 anti-protease) to adjust the final concentration of NaCl to 150 mM. Agarose anti-FlagM2 beads (40 μL) (Sigma, A2220) were added to each lysate and incubated overnight at 4 °C on a rotative system. The next day, beads were washed 5 times with the wash buffer (50 mM Tris pH 7.3, 150 mM NaCl, 0.5% Triton X100 (V/V), 1/500 anti-protease, 1 mM DTT, 1 mM PMSF). […] Following three elutions of 2 h each, the pooled fractions were incubated with 40 μL of anti-HA beads (Sigma A2095) overnight at 4 °C on a rotative system. […]

GST-MLL3PHD2/3 = assay: GST pull-down, WT MLL3PHD2/3; assay type: binding, human; settings: WT GST-MLL3PHD2/3; HEK293FT lysate, 3 h at 4 °C, western blot; n = 3
Procedure: as §3

[2] = tested on: active enhancer upstream of GRHL2 gene in K562 ASXL2 KD cells; assay: ChIP-qPCR at active enhancer upstream of GRHL2; assay type: cell-based, human; settings: K562 ASXL2 KD cells complemented from AAVS1; IP/input corrected for total H3; three biological replicates
Description: K562 cell lines with knocked down expression of endogenous ASXL2 were obtained after double infection of lentivirus expressing Cas9 and 4 different gRNAs targeting the end of exon 1 (pLENTI_CRISPR_V2, co-selection by FACS with GFP). Clone 1 L was selected (obtained with gRNA 1: 5′-[…]-3′ cutting at the very end of exon 1) for transfection of WT and DMBH ASXL2 vectors for integration and stable expression from the AAVS1 safe harbor, as described for the tagged K562 cell lines used for purification. Expression levels of endogenous ASXL2, WT and ΔMBH ASXL2 were monitored by running SDS-PAGE and transferring onto nitrocellulose membrane. Anti-FLAG M2 conjugated to horseradish peroxidase (A8592, Sigma) was used at 1:10,000 dilution and anti-ASXL2, at 1:2,000 (Cell Signaling (E623X), CS71257, lot:1). Immunoblots were visualized using a Western Lightning plus ECL reagent (Perkin-Elmer).
Crosslinked chromatin from K562 cells and immunoprecipitations were prepared as previously described. For chromatin immunoprecipitation, 100 μg of chromatin was incubated with 2 μg anti-H2AK119ub (Cell Signaling, 8240S, D27C4 lot:9) or 3 μg anti-H3 (Abcam, ab1791, lot GR3421644-1), 2 μg anti-H3Kme1 (Abcam, ab8895, lot GR442591-1), 2 μg anti-H3K27ac (Thermo Fisher, MA5-23516, lot: ZA4181671) or 0.3 μg anti-H3K27me3 (Cell Signaling, C36B11, 9733 S lot:19) antibodies overnight at 4 °C. 25 μl of Protein A Dynabeads were then added to each sample, and the mixtures were incubated at 4 °C for 4 h. The beads were washed extensively and eluted with 1% SDS and 0.1 M NaHCO3. Cross-linked samples were reversed by heating overnight at 65 °C in the presence of 0.2 M NaCl. Samples were then treated with RNase A and proteinase K for 2 h, and DNA was recovered using MinElute PCR purification Kit (Qiagen, 28004) according to the manufacturer’s instructions. Quantitative real-time PCR corrected for primer efficiencies in the linear range was performed using SYBR Green I (Roche, 04877352001) on a LightCycler 480 (Roche). Primers for 5′ end of active enhancer: Fwd: 5′-[…]; Rev: 5′-[…]; For 3′ end: Fwd: 5′-[…], Rev: 5′-[…].

MLL3/4 complexes = assay: Tandem affinity purification: interaction with MLL3/4 complexes; assay type: cell-based, human; settings: K562 soluble nuclear extracts, 3Flag-2Strep tag, western blot and mass spectrometry
Procedure: as §1, §2

[3] = tested on: H3K4 (recombinant histone octamers or mono-nucleosomes); assay: H3K4 histone methyltransferase assay; assay type: biochemical, human; settings: purified complexes, 50 μM S-adenosyl-L-methionine, 8 h at 30 °C, n = 2
Procedure: Equivalent amounts of purified ASXL2 WT and ΔMBH complexes were incubated with 0.5 μg of reconstituted recombinant mono-nucleosomes or histone octamers as substrates. All HMT assays were performed in 50 mM Tris-HCl pH 8, 100 mM KCl, 5 mM MgCl2, 0.1 mM DTT, 10% glycerol in the presence of 50 μM S-adenosyl-L-methionine (Sigma, A7007). After an 8 h incubation at 30 °C, 4X Laemmli buffer was added, the samples run on 15% SDS-PAGE and transferred on nitrocellulose membrane. Immunoblotting was performed with an anti-H3K4me1 (Ab8895, rabbit polyclonal) diluted 1:1000 followed by HRP conjugated secondary goat anti-rabbit antibody (Sigma) used at a 1:10,000 dilution. The immunoblots were visualized using a Western Lightning plus-ECL reagent (Perkin-Elmer). Anti-H4 (Abcam, Ab7311, rabbit polyclonal) was used at a 1:2,500 dilution.

[4] = tested on: MLL4PHD2/3 or MLL3PHD2/3 mutants; assay: GST pull-down, mutated MLL3/4PHD2/3; assay type: binding, human; settings: mutated GST-MLL3/4PHD2/3; HEK293FT lysate, 3 h at 4 °C, western blot; n = 3
Procedure: as §3

GST-MLL4PHD2/3 = assay: GST pull-down, WT MLL4PHD2/3; assay type: binding, human; settings: WT GST-MLL4PHD2/3; HEK293FT lysate, 3 h at 4 °C, western blot; n = 3
Procedure: as §3

mono-methylation of H3K4 [3]: clearly detected
B1: full-length ASXL2: full length wild type ASXL2 expressed in HEK293FT or K562 cells (protein)
chain: MREKGRRKKGRTWAEAAKTVLEKYPNTPMSHKEILQVIQREGLKEIRSGTSPLACLNAMLHTNSRGEEGIFYKVPGRMGVYTLKKDVPDGVKELSEGSEESSDGQSDSQSSENSSSSSDGGSNKEGKKSRWKRKVSSSSPQSGCPSPTIPAGKVISPSQKHSKKALKQALKQQQQKKQQQQCRPSISISSNQHLSLKTVKAASDSVPAKPATWEGKQSDGQTGSPQNSNSSFSSSVKVENTLLGLGKKSFQRSERLHTRQMKRTKCADIDVETPDSILVNTNLRALINKHTFSVLPGDCQQRLLLLLPEVDRQVGPDGLMKLNGSALNNEFFTSAAQGWKERLSEGEFTPEMQVRIRQEIEKEKKVEPWKEQFFESYYGQSSGLSLEDSKKLTASPSDPKVKKTPAEQPKSMPVSEASLIRIVPVVSQSECKEEALQMSSPGRKEECESQGEVQPNFSTSSEPLLSSALNTHELSSILPIKCPKDEDLLEQKPVTSAEQESEKNHLTTASNYNKSESQESLVTSPSKPKSPGVEKPIVKPTAGAGPQETNMKEPLATLVDQSPESLKRKSSLTQEEAPVSWEKRPRVTENRQHQQPFQVSPQPFLNRGDRIQVRKVPPLKIPVSRISPMPFHPSQVSPRARFPVSITSPNRTGARTLADIKAKAQLVKAQRAAAAAAAAAAAAASVGGTIPGPGPGGGQGPGEGGEGQTARGGSPGSDRVSETGKGPTLELAGTGSRGGTRELLPCGPETQPQSETKTTPSQAQPHSVSGAQLQQTPPVPPTPAVSGACTSVPSPAHIEKLDNEKLNPTRATATVASVSHPQGPSSCRQEKAPSPTGPALISGASPVHCAADGTVELKAGPSKNIPNPSASSKTDASVPVAVTPSPLTSLLTTATLEKLPVPQVSATTAPAGSAPPSSTLPAASSLKTPGTSLNMNGPTLRPTSSIPANNPLVTQLLQGKDVPMEQILPKPLTKVEMKTVPLTAKEERGMGALIATNTTENSTREEVNERQSHPATQQQLGKTLQSKQLPQVPRPLQLFSAKELRDSSIDTHQYHEGLSKATQDQILQTLIQRVRRQNLLSVVPPSQFNFAHSGFQLEDISTSQRFMLGFAGRRTSKPAMAGHYLLNISTYGRGSESFRRTHSVNPEDRFCLSSPTEALKMGYTDCKNATGESSSSKEDDTDEESTGDEQESVTVKEEPQVSQSAGKGDTSSGPHSRETLSTSDCLASKNVKAEIPLNEQTTLSKENYLFTRGQTFDEKTLARDLIQAAQKQMAHAVRGKAIRSSPELFSSTVLPLPADSPTHQPLLLPPLQTPKLYGSPTQIGPSYRGMINVSTSSDMDHNSAVPGSQVSSNVGDVMSFSVTVTTIPASQAMNPSSHGQTIPVQAFSEENSIEGTPSKCYCRLKAMIMCKGCGAFCHDDCIGPSKLCVSCLVVR
modifications: left off: Myc, end not stated, kept
notes: full length wild type ASXL2 expressed in HEK293FT or K562 cells
association with PR-DUB complex (PR-DUB complex): stably associates with the expected components of the PR-DUB complex | association in pull-down [1]: unable to bind full-length ASXL2 | de-ubiquitination of H2AK119 (H2AK119): efficient and equivalent de-ubiquitination of H2AK119 | association in pull-down (GST-MLL3PHD2/3): detected | H2AK119ub level [2]: decrease in H2AK119ub level at this enhancer | H3K4me1 level [2]: not affected | interaction with MLL3/4 complexes (MLL3/4 complexes): co-fractionation of the PR-DUB complex with the components of the MLL3/4 complexes | association in pull-down [4]: not with the MLL4PHD2/3 or MLL3PHD2/3 mutants | association in pull-down (GST-MLL4PHD2/3): detected
